Key:
[1] = Spontaneous adsorption and concentration of bevacizumab in porous SiO2; assay type: physicochemical; conditions: 0.125 mg/mL solution
Source text: The affinity of a porous Si particle for a particular molecule can be controlled with surface chemistry. The surface of oxidized porous Si has a point of zero charge at a pH of around 2, and so it presents a negatively charged surface to most aqueous solutions of interest. At the appropriate pH, porous SiO2 spontaneously adsorbs positively charged proteins such as serum albumin, fibrinogen, protein A, immunoglobulin G (IgG), or horseradish peroxidase, concentrating them in the process. For example, a 0.125 mg/mL solution of the monoclonal antibody bevacizumab (trade name Avastin, an anti-cancer drug) spontaneously concentrates in suitably prepared porous SiO2 by a factor of >100.

[2] = in vivo; cited from earlier work
[3] = cited from earlier work

## bevacizumab [Avastin]
[1]
  Concentration factor in suitably prepared porous SiO2: > 100 factor
[2]
  Vitreous half-life of free drug: 120 h
[3]
  IC50: 0.022 µg/mL
[3]; intraocular
  Therapeutically relevant dose: > 22 ng/mL

Reference: US9937129B2, “Materials and methods for delivering compositions to selected tissues” (The Regents of the University of California, priority 2007, dated 2018)
